Experimental data from article PMC11403621, “Selective Aurora A-TPX2 Interaction Inhibitors Have In Vivo Efficacy as Targeted Antimitotic Agents” (Journal of Medicinal Chemistry, 2024).
No end group written: not given here.

T1: Aurora A kinase domain (residues 126–390) of human Aurora A with hexa-His tag (human, UniProt O14965 126-390)
T1 construct: Construct for biophysical assays; Co-expressed with λ phosphatase, so probably not phosphorylated (surmise); The crystallography constructs differ (Thr287Ala or Cys290Ala); also called Aurora A protein; pBAT4-AurAS.003; source: E. coli BL21(DE3) with pUBS520, double cistronic construct with λ phosphatase, purified (HisTrap, Superdex 75)
T1 sequence (looked up): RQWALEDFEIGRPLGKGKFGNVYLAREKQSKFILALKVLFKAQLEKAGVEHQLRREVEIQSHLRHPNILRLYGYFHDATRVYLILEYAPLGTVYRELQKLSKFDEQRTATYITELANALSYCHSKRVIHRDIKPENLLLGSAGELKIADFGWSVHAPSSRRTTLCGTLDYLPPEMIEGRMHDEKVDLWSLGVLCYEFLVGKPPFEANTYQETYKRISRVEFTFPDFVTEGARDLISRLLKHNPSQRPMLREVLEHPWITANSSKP


Legend:
[1] = target: T1, Aurora A kinase domain (residues …); experiment: fluorescence polarisation; direct titration of up to 200 nM Aurora A to 11 nM labeled TPX2 peptide; 100 mM HEPES pH 7.4, 100 mM magnesium acetate, 50 mM NaCl, 0.02% P20, 1 mM DTT, 1 mM ATP, 10% (v/v) DMSO; settings: both partners purified
[2] = target: T1, Aurora A kinase domain (residues …); experiment: ligand-observed NMR (CPMG) competition; small-molecule fragments bound to Aurora A, displaced by added TPX2 peptide 7-22 but not by a tight-binding ATP-site ligand; settings: both partners purified

Kd [1]	binding result [2]	Binder
1.2 nM	–	GPGSYSYDAPSDFINFSSLDDEGDTQNIDSWFEEKANLENLKGGGC(Alexa Fluor 488 C5 maleimide)SS (residues left at the N-terminus before the TPX2 part in the printed peptide (after HRV 3C cleavage); TPX2, UniProt Q9ULW0, residues 7-43; C-terminal tail as printed: LK followed by the stated GGGCSS tail; the cysteine carries the dye; Whole printed peptide: [residues removed]; also called labeled TPX2 peptide; not shown: His-tag, N-terminal, cleaved; GB1, N-terminal, cleaved) [TPX2 peptide (residues 7–43) with a C-terminal GGGCSS tail, labeled with Alexa Fluor 488]
–	binds	SYSYDAPSDFINFSSL (peptide, UniProt Q9ULW0 7-22, looked up, TPX2, UniProt Q9ULW0 (printed for the longer peptide), amino acids 7-22; detailed methods are in the Supporting Information PDF) [TPX2 peptide fragment (amino acids 7–22)]
